Laboratory results published in paper PMC9688318, “Construction of a Versatile, Programmable RNA-Binding Protein Using Designer PPR Proteins and Its Application for Splicing Control in Mammalian Cells”.

Columns and labels:
[1] = tested on: PPR2.0t15 (synthetic designer (scaffold from Arabidopsis PPR consensus)); test: RBP-ELISA; details: cell lysate, EMSA: 20 mM Tris-HCl pH 8.0, 150 mM NaCl, 0.5% NP-40, 1 mM DTT, 1 mM EDTA, 0.2 pmol biotin-RNA in 10 uL, 6% PAGE in 0.5x TBE, temperature not stated
[2] = tested on: PPR2.0t15 (synthetic designer (scaffold from Arabidopsis PPR consensus)); test: EMSA; details: apparent; EMSA: 20 mM Tris-HCl pH 8.0, 150 mM NaCl, 0.5% NP-40, 1 mM DTT, 1 mM EDTA, 0.2 pmol biotin-RNA in 10 uL, 6% PAGE in 0.5x TBE; temperature not stated; RBP-ELISA …
[3] = tested on: PPR2.0t3 (synthetic designer (scaffold from Arabidopsis PPR consensus)); test: RBP-ELISA; details: cell lysate, EMSA: 20 mM Tris-HCl pH 8.0, 150 mM NaCl, 0.5% NP-40, 1 mM DTT, 1 mM EDTA, 0.2 pmol biotin-RNA in 10 uL, 6% PAGE in 0.5x TBE, temperature not stated
[4] = tested on: PPR2.0t3 (synthetic designer (scaffold from Arabidopsis PPR consensus)); test: EMSA; details: apparent; EMSA: 20 mM Tris-HCl pH 8.0, 150 mM NaCl, 0.5% NP-40, 1 mM DTT, 1 mM EDTA, 0.2 pmol biotin-RNA in 10 uL, 6% PAGE in 0.5x TBE; temperature not stated; RBP-ELISA …
[5] = tested on: PPR2.0t11 (synthetic designer (scaffold from Arabidopsis PPR consensus)); test: RBP-ELISA; details: cell lysate, EMSA: 20 mM Tris-HCl pH 8.0, 150 mM NaCl, 0.5% NP-40, 1 mM DTT, 1 mM EDTA, 0.2 pmol biotin-RNA in 10 uL, 6% PAGE in 0.5x TBE, temperature not stated
[6] = tested on: PPR2.0t11 (synthetic designer (scaffold from Arabidopsis PPR consensus)); test: EMSA; details: apparent; EMSA: 20 mM Tris-HCl pH 8.0, 150 mM NaCl, 0.5% NP-40, 1 mM DTT, 1 mM EDTA, 0.2 pmol biotin-RNA in 10 uL, 6% PAGE in 0.5x TBE; temperature not stated; RBP-ELISA …
[7] = tested on: PPR2.0t5 (synthetic designer (scaffold from Arabidopsis PPR consensus)); test: RBP-ELISA; details: cell lysate, EMSA: 20 mM Tris-HCl pH 8.0, 150 mM NaCl, 0.5% NP-40, 1 mM DTT, 1 mM EDTA, 0.2 pmol biotin-RNA in 10 uL, 6% PAGE in 0.5x TBE, temperature not stated
[8] = tested on: PPR2.0t5 (synthetic designer (scaffold from Arabidopsis PPR consensus)); test: EMSA; details: apparent; EMSA: 20 mM Tris-HCl pH 8.0, 150 mM NaCl, 0.5% NP-40, 1 mM DTT, 1 mM EDTA, 0.2 pmol biotin-RNA in 10 uL, 6% PAGE in 0.5x TBE; temperature not stated; RBP-ELISA …
[9] = tested on: PPR2.0t2 (synthetic designer (scaffold from Arabidopsis PPR consensus)); test: RBP-ELISA; details: cell lysate, EMSA: 20 mM Tris-HCl pH 8.0, 150 mM NaCl, 0.5% NP-40, 1 mM DTT, 1 mM EDTA, 0.2 pmol biotin-RNA in 10 uL, 6% PAGE in 0.5x TBE, temperature not stated
[10] = tested on: PPR2.0t2 (synthetic designer (scaffold from Arabidopsis PPR consensus)); test: EMSA; details: apparent; EMSA: 20 mM Tris-HCl pH 8.0, 150 mM NaCl, 0.5% NP-40, 1 mM DTT, 1 mM EDTA, 0.2 pmol biotin-RNA in 10 uL, 6% PAGE in 0.5x TBE; temperature not stated; RBP-ELISA …
[11] = tested on: PPR2.0t24 (synthetic designer (scaffold from Arabidopsis PPR consensus)); test: EMSA; details: apparent; EMSA: 20 mM Tris-HCl pH 8.0, 150 mM NaCl, 0.5% NP-40, 1 mM DTT, 1 mM EDTA, 0.2 pmol biotin-RNA in 10 uL, 6% PAGE in 0.5x TBE; temperature not stated; RBP-ELISA …
[12] = tested on: PPR2.0t4 (synthetic designer (scaffold from Arabidopsis PPR consensus)); test: RBP-ELISA; details: cell lysate, EMSA: 20 mM Tris-HCl pH 8.0, 150 mM NaCl, 0.5% NP-40, 1 mM DTT, 1 mM EDTA, 0.2 pmol biotin-RNA in 10 uL, 6% PAGE in 0.5x TBE, temperature not stated
[13] = tested on: PPR2.0t4 (synthetic designer (scaffold from Arabidopsis PPR consensus)); test: EMSA; details: apparent; EMSA: 20 mM Tris-HCl pH 8.0, 150 mM NaCl, 0.5% NP-40, 1 mM DTT, 1 mM EDTA, 0.2 pmol biotin-RNA in 10 uL, 6% PAGE in 0.5x TBE; temperature not stated; RBP-ELISA …
[14] = tested on: PPR2.0t23 (synthetic designer (scaffold from Arabidopsis PPR consensus)); test: RBP-ELISA; details: cell lysate, EMSA: 20 mM Tris-HCl pH 8.0, 150 mM NaCl, 0.5% NP-40, 1 mM DTT, 1 mM EDTA, 0.2 pmol biotin-RNA in 10 uL, 6% PAGE in 0.5x TBE, temperature not stated
[15] = tested on: PPR2.0t23 (synthetic designer (scaffold from Arabidopsis PPR consensus)); test: EMSA; details: apparent; EMSA: 20 mM Tris-HCl pH 8.0, 150 mM NaCl, 0.5% NP-40, 1 mM DTT, 1 mM EDTA, 0.2 pmol biotin-RNA in 10 uL, 6% PAGE in 0.5x TBE; temperature not stated; RBP-ELISA …
[16] = tested on: PPR2.0t8 (synthetic designer (scaffold from Arabidopsis PPR consensus)); test: RBP-ELISA; details: cell lysate, EMSA: 20 mM Tris-HCl pH 8.0, 150 mM NaCl, 0.5% NP-40, 1 mM DTT, 1 mM EDTA, 0.2 pmol biotin-RNA in 10 uL, 6% PAGE in 0.5x TBE, temperature not stated
[17] = tested on: PPR2.0t8 (synthetic designer (scaffold from Arabidopsis PPR consensus)); test: EMSA; details: apparent; EMSA: 20 mM Tris-HCl pH 8.0, 150 mM NaCl, 0.5% NP-40, 1 mM DTT, 1 mM EDTA, 0.2 pmol biotin-RNA in 10 uL, 6% PAGE in 0.5x TBE; temperature not stated; RBP-ELISA …
[18] = tested on: PPR2.0t14 (synthetic designer (scaffold from Arabidopsis PPR consensus)); test: RBP-ELISA; details: cell lysate, EMSA: 20 mM Tris-HCl pH 8.0, 150 mM NaCl, 0.5% NP-40, 1 mM DTT, 1 mM EDTA, 0.2 pmol biotin-RNA in 10 uL, 6% PAGE in 0.5x TBE, temperature not stated
[19] = tested on: PPR2.0t14 (synthetic designer (scaffold from Arabidopsis PPR consensus)); test: EMSA; details: apparent; EMSA: 20 mM Tris-HCl pH 8.0, 150 mM NaCl, 0.5% NP-40, 1 mM DTT, 1 mM EDTA, 0.2 pmol biotin-RNA in 10 uL, 6% PAGE in 0.5x TBE; temperature not stated; RBP-ELISA …
[20] = tested on: PPR2.0t1 (synthetic designer (scaffold from Arabidopsis PPR consensus)); test: RBP-ELISA; details: cell lysate, EMSA: 20 mM Tris-HCl pH 8.0, 150 mM NaCl, 0.5% NP-40, 1 mM DTT, 1 mM EDTA, 0.2 pmol biotin-RNA in 10 uL, 6% PAGE in 0.5x TBE, temperature not stated
[21] = tested on: PPR2.0t1 (synthetic designer (scaffold from Arabidopsis PPR consensus)); test: EMSA; details: apparent; EMSA: 20 mM Tris-HCl pH 8.0, 150 mM NaCl, 0.5% NP-40, 1 mM DTT, 1 mM EDTA, 0.2 pmol biotin-RNA in 10 uL, 6% PAGE in 0.5x TBE; temperature not stated; RBP-ELISA …
[22] = tested on: PPR2.0t19 (synthetic designer (scaffold from Arabidopsis PPR consensus)); test: RBP-ELISA; details: cell lysate, EMSA: 20 mM Tris-HCl pH 8.0, 150 mM NaCl, 0.5% NP-40, 1 mM DTT, 1 mM EDTA, 0.2 pmol biotin-RNA in 10 uL, 6% PAGE in 0.5x TBE, temperature not stated
[23] = tested on: PPR2.0t19 (synthetic designer (scaffold from Arabidopsis PPR consensus)); test: EMSA; details: apparent; EMSA: 20 mM Tris-HCl pH 8.0, 150 mM NaCl, 0.5% NP-40, 1 mM DTT, 1 mM EDTA, 0.2 pmol biotin-RNA in 10 uL, 6% PAGE in 0.5x TBE; temperature not stated; RBP-ELISA …

In the case of “GACAUGCAAGGAUAAUAUCAAACACGACUG [Probe_t15]”, the binding signal [1] is reported as 2.84e+07 luminescence and the Kd [2] is reported as 41 nM.
In the case of “GACAUGCCUGAGUCAUAACCAGCCUGACUG [Probe_t3]”, the binding signal [3] is reported as 3.35e+07 luminescence and the Kd [4] is reported as 59.2 nM.
With “GACAUGCGACUCAGGAAUCGGCUCUGACUG [Probe_t11]” the binding signal [5] was 3.78e+07 luminescence and the Kd [6] was 63.3 nM.
“GACAUGCCAACAUCAGUCUGAUAAGGACUG [Probe_t5]” showed a binding signal [7] of 1.67e+07 luminescence and a Kd [8] of 167 nM.
In the case of “GACAUGCGAGAGGAAGCCUGAGAGUGACUG [Probe_t2]”, the binding signal [9] is reported as 5.68e+07 luminescence and the Kd [10] is reported as 4 nM.
“GACAUGCGGCGGGGCACUGUGCGUGGACUG [Probe_t24]” showed a Kd [11] of 11 nM.
“GACAUGCGGCAAAAAGAUCACUGUAGACUG [Probe_t4]” showed a binding signal [12] of 5.98e+07 luminescence and a Kd [13] of 2.57 nM.
With “GACAUGCCCCAUAGAUGUGACAAGCGACUG [Probe_t23]” the binding signal [14] was 3.27e+07 luminescence and the Kd [15] was 10.4 nM.
“GACAUGCCACUAUUUAAGUUAUCAAGACUG [Probe_t8]” showed a binding signal [16] of 4.7e+07 luminescence and a Kd [17] of 1.95 nM.
For “GACAUGCGCAGAUAAUUAAUAAGAAGACUG [Probe_t14]”, the binding signal [18] was 1.33e+07 luminescence and the Kd [19] was 197 nM.
With “GACAUGCGAAUGAACUCUUCCGGGAGACUG [Probe_t1]” the binding signal [20] was 6.64e+07 luminescence and the Kd [21] was 3.45 nM.
For “GACAUGCGUGAUGUGGAGUUAAGGCGACUG [Probe_t19]”, the binding signal [22] was 1.19e+07 luminescence and the Kd [23] was 173 nM.
